The record followed here is paper PMC11177981 (2024).

B1: FLAG-GLUT4 (human full length) expressed in HEK293T cells [human] / retinoic acid inducible gene I (RIG-I), endogenous in HEK293T cells [human (endogenous in HEK293T)] (parent complex)
chain 1: MPSGFQQIGSEDGEPPQQRVTGTLVLAVFSAVLGSLQFGYNIGVINAPQKVIEQSYNETWLGRQGPEGPSSIPPGTLTTLWALSVAIFSVGGMISSFLIGIISQWLGRKRAMLVNNVLAVLGGSLMGLANAAASYEMLILGRFLIGAYSGLTSGLVPMYVGEIAPTHLRGALGTLNQLAIVIGILIAQVLGLESLLGTASLWPLLLGLTVLPALLQLVLLPFCPESPRYLYIIQNLEGPARKSLKRLTGWADVSGVLAELKDEKRKLERERPLSLLQLLGSRTHRQPLIIAVVLQLSQQLSGINAVFYYSTSIFETAGVGQPAYATIGAGVVNTVFTLVSVLLVERAGRRTLHLLGLAGMCGCAILMTVALLLLERVPAMSYVSIVAIFGFVAFFEIGPGPIPWFIVAELFSQGPRPAAMAVAGFSNWTSNFIIGMGFQYVAEAMGPYVFLLFAVLLLGFFIFTFLRVPETRGRTFDQISAAFHRTPSLLEQEVKPSTELEYLGPDEND
chain 2: MTTEQRRSLQAFQDYIRKTLDPTYILSYMAPWFREEEVQYIQAEKNNKGPMEAATLFLKFLLELQEEGWFRGFLDALDHAGYSGLYEAIESWDFKKIEKLEEYRLLLKRLQPEFKTRIIPTDIISDLSECLINQECEEILQICSTKGMMAGAEKLVECLLRSDKENWPKTLKLALEKERNKFSELWIVEKGIKDVETEDLEDKMETSDIQIFYQEDPECQNLSENSCPPSEVSDTNLYSPFKPRNYQLELALPAMKGKNTIICAPTGCGKTFVSLLICEHHLKKFPQGQKGKVVFFANQIPVYEQQKSVFSKYFERHGYRVTGISGATAENVPVEQIVENNDIIILTPQILVNNLKKGTIPSLSIFTLMIFDECHNTSKQHPYNMIMFNYLDQKLGGSSGPLPQVIGLTASVGVGDAKNTDEALDYICKLCASLDASVIATVKHNLEELEQVVYKPQKFFRKVESRISDKFKYIIAQLMRDTESLAKRICKDLENLSQIQNREFGTQKYEQWIVTVQKACMVFQMPDKDEESRICKALFLYTSHLRKYNDALIISEHARMKDALDYLKDFFSNVRAAGFDEIEQDLTQRFEEKLQELESVSRDPSNENPKLEDLCFILQEEYHLNPETITILFVKTRALVDALKNWIEGNPKLSFLKPGILTGRGKTNQNTGMTLPAQKCILDAFKASGDHNILIATSVADEGIDIAQCNLVILYEYVGNVIKMIQTRGRGRARGSKCFLLTSNAGVIEKEQINMYKEKMMNDSILRLQTWDEAVFREKILHIQTHEKFIRDSQEKPKPVPDKENKKLLCRKCKALACYTADVRVIEECHYTVLGDAFKECFVSRPHPKPKQFSSFEKRAKIFCARQNCSHDWGIHVKYKTFEIPVIKIESFVVEDIATGVQTLYSKWKDFHFEKIPFDPAEMSK

The variants in this test derive from B1. As to the kind of experiment: co-IP (IP: FLAG) with immunoblot band densitometry; HEK293T cells; FLAG-GLUT4 plasmids, endogenous RIG-I; Vector, pcDNA3.1-FLAG; read off a plot.
Consider chain 1 R169A, for which the response is ~1.1 band density ratio (RIG-I/GLUT4).
